Experimental data from patent US20100143438A1, “BIOMOLECULES” (University of Strathclyde, priority 2006, published 2010).

System: Fmoc-FRGD-PEGA surface tethered peptide (Fmoc-F↓RGD bond)
Assay: Enzymatic hydrolysis of PEGA surface tethered peptides analysed by HPLC
Assay type: biochemical
Settings: for Fmoc-F-OH (%) / Fmoc-FR-OH (%): 37° C., 2 hours in enzyme solution, 100% = 4.08 nmol maximum Fmoc-peptide hydrolysed, n=9; for cleavage and selectivity for Fmoc-F↓RGD versus Fmoc-FR↓GD: HPLC
Method: Three proteolytic enzymes, chymotrypsin, thermolysin and proteinase K, that are known to cleave peptide bonds involving F amino acids in the P1 position were tested for their ability to selectively hydrolyse Fmoc-F↓RGD bond^15. […] Surfaces were incubated at 37° C. for 2 hours in enzyme solution (concentrations and activities are shown in Table 1) in phosphate buffer and the cleaved products were analysed by HPLC.
Surfaces were rinsed in a known volume (at least 4 ml) of a 50:50 mixture of acetonitrile (ACN) and water. The rinsing solution was kept and added to the enzyme solution that the surface was in. 1 ml of this solution was placed into an HPLC autosampler vial. The HPLC machine (manufactured by Dionex; California, USA) consisted of a P.680 HPLC pump joined to an ASI-100 Automated Sample Injector with a Dionex UVD17OU detector. The column was an EC 250/4.6 Nucleosil 100-5 C18, with an internal diameter of 4.6 mm and a column length of 250 mm containing particles of 5 μm in diameter. 100 μl was injected into the HPLC column at the start of each run and a buffer gradient run through the column, buffer A was 99.9% water and 0.1% TFA, buffer B was 99.9% ACN and 0.1% TFA. For quantification, three samples of each surface were produced and repeated three times.

B1: Proteinase K: proteolytic enzyme cleaving peptide bonds with F in P1 position (protein, UniProt P06873 106-384, looked up)
Proteinase K: AAQTNAPWGLARISSTSPGTSTYYYDESAGQGSCVYVIDTGIEASHPEFEGRAQMVKTYYYSSRDGNGHGTHCAGTVGSRTYGVAKKTQLFGVKVLDDNGSGQYSTIIAGMDFVASDKNNRNCPKGVVASLSLGGGYSSSVNSAAARLQSSGVMVAVAAGNNNADARNYSPASEPSVCTVGASDRYDRRSSFSNYGSVLDIFGPGTSILSTWIGGSTRSISGTSMATPHVAGLAAYLMTLGKTTAASACRYIADTANKGDLSNIPFGTVNLLAYNNYQA
Fmoc-F-OH (%): 60 ± 3.0% | Fmoc-FR-OH (%): 40 ± 8.0% | cleavage and selectivity for Fmoc-F↓RGD versus Fmoc-FR↓GD: highest cleavage but poor selectivity | maximum amount of Fmoc-peptide cleaved from the surface (determined by HPLC): 4.08 nmol

B2: Thermolysin: proteolytic enzyme (metalloprotease) (protein, UniProt P00800 233-548, looked up)
Thermolysin: ITGTSTVGVGRGVLGDQKNINTTYSTYYYLQDNTRGNGIFTYDAKYRTTLPGSLWADADNQFFASYDAPAVDAHYYAGVTYDYYKNVHNRLSYDGNNAAIRSSVHYSQGYNNAFWNGSQMVYGDGDGQTFIPLSGGIDVVAHELTHAVTDYTAGLIYQNESGAINEAISDIFGTLVEFYANKNPDWEIGEDVYTPGISGDSLRSMSDPAKYGDPDHYSKRYTGTQDNGGVHINSGIINKAAYLISQGGTHYGVSVVGIGRDKLGKIFYRALTQYLTPTSNFSQLRAAAVQSATDLYGSTSQEVASVKQAFDAVGVK
Fmoc-F-OH (%): 40 ± 2.4% | Fmoc-FR-OH (%): 27 ± 3.5% | cleavage and selectivity for Fmoc-F↓RGD versus Fmoc-FR↓GD: poor selectivity
